In IntAct's records for PubMed 22404908:

B1: Rho-related GTP-binding protein RhoD (Homo sapiens), O00212 (parent)
chain: MTAAQAAGEEAPPGVRSVKVVLVGDGGCGKTSLLMVFADGAFPESYTPTVFERYMVNLQVKGKPVHLHIWDTAGQDDYDRLRPLFYPDASVLLLCFDVTSPNSFDNIFNRWYPEVNHFCKKVPIIVVGCKTDLRKDKSLVNKLRRNGLEPVTYHRGQEMARSVGAVAYLECSARLHDNVHAVFQEAAEVALSSRGRNFWRRITQGFCVVT

Variants of: B1
Conditions: with plxb1_human PLXNB1, O43157
Sequence of plxb1_human PLXNB1, O43157 (O43157 whole entry): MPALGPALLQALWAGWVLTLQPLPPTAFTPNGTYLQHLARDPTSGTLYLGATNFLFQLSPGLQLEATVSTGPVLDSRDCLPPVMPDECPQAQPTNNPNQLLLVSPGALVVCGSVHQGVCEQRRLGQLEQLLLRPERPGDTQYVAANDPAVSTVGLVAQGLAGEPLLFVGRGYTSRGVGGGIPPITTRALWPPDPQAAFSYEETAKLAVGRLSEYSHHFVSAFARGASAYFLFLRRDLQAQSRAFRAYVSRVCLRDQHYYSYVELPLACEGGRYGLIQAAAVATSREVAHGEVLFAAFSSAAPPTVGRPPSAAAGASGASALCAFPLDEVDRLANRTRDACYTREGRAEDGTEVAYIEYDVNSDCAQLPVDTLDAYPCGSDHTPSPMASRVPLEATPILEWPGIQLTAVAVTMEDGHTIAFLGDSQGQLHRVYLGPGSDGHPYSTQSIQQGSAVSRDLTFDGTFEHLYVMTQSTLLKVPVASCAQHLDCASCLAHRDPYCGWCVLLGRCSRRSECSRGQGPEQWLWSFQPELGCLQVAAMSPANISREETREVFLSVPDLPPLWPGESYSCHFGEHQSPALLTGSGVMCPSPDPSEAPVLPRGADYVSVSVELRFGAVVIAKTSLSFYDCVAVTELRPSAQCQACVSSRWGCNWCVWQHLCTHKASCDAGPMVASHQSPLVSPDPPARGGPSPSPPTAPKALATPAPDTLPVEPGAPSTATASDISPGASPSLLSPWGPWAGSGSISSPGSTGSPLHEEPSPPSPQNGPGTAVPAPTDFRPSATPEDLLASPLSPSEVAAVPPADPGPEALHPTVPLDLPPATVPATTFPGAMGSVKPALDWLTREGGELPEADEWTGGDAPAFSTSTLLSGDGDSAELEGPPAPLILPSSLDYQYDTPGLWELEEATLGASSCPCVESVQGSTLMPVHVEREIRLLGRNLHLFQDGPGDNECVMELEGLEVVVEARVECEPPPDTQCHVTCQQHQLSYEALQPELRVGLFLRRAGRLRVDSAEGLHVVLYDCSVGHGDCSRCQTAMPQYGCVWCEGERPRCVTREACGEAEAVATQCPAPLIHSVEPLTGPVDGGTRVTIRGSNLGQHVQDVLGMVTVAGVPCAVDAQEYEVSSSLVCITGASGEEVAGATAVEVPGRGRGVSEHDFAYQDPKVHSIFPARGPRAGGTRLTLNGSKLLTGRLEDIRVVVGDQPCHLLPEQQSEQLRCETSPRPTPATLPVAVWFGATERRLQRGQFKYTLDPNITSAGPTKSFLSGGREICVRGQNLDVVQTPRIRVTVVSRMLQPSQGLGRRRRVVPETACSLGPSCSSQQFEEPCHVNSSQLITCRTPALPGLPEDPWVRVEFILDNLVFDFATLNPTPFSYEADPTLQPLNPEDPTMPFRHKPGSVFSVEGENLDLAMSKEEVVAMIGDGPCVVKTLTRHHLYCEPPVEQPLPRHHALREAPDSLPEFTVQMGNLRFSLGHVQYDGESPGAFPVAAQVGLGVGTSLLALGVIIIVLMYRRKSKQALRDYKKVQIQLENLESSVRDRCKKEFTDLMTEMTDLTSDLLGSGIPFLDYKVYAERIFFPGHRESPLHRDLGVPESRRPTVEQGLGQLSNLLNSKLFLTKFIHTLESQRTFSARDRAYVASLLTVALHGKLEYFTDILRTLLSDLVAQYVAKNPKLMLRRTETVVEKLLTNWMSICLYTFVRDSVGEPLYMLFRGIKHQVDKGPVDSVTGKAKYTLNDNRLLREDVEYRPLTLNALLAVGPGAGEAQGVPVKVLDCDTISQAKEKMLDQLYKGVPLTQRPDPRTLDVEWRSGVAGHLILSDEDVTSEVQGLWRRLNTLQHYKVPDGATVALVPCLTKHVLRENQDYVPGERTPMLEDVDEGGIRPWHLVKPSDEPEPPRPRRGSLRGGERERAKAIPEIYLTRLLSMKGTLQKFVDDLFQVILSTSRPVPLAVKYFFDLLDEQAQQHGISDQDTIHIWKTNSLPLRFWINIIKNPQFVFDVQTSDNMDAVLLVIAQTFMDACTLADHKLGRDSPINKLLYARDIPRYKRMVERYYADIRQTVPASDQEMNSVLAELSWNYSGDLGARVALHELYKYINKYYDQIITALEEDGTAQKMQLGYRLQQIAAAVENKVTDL

effect of a mutation on the interaction | Variant
disrupting interaction | T31K
